Data on one molecule can be found in publication PMC10881024, “No evidence for a direct extracellular interaction between human Fc receptor–like 3 (MAIA) and the sperm ligand IZUMO1” (Science Advances, 2024).

This experiment addresses T1, human IZUMO1 entire ectodomain, biotinylated, rat Cd4 domains 3 and 4 tagged (bait construct) (human, UniProt Q8IYV9 22-285, enzymatically biotinylated (BirA) on the biotinylation target sequence).
T1 construct: IZUMO1, human, entire ectodomain, truncated at P285 of Q8IYV9; Monomer as expressed; also called IZUMO1 bait; biotinylated monomeric IZUMO1; source: HEK293-6E, transient transfection, cotransfected with secreted BirA; conditioned medium dialysed in PBS, or purified from spent medium on Ni-NTA (SAVEXIS); not shown: domains 3 and 4 of rat CD4, C-terminal, kept
The experiment in a line: SAVEXIS; purified monomeric biotinylated baits at 13.4 nM captured on streptavidin-coated plates 16 hours at 4°C; preys made multimeric by clustering biotinylated monomers around streptavidin-HRP, 4.4 nM, 1 hour at room temperature; HBS-T washes with desthiobiotin; tetramethylbenzidine, absorbance at 650 nm. As to conditions: both partners purified.

T1 sequence (Q8IYV9 22-285): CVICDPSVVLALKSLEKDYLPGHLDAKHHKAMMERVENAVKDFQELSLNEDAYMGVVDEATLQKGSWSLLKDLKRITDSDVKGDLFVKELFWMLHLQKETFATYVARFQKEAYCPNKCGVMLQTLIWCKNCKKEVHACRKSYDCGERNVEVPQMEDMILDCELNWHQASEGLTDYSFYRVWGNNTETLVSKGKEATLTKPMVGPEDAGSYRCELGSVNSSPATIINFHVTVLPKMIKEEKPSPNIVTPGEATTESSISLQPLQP

B1: human JUNO entire ectodomain, biotinylated, rat Cd4 domains 3 and 4 tagged (bait construct) (domain or fragment, UniProt A6ND01 20-231, looked up)
chain: GDELLNICMNAKHHKRVPSPEDKLYEECIPWKDNACCTLTTSWEAHLDVSPLYNFSLFHCGLLMPGCRKHFIQAICFYECSPNLGPWIQPVGSLGWEVAPSGQGERVVNVPLCQEDCEEWWEDCRMSYTCKSNWRGGWDWSQGKNRCPKGAQCLPFSHYFPTPADLCEKTWSNSFKASPERRNSGRCLQKWFEPAQGNPNVAVARLFASSAP
modifications: enzymatically biotinylated (BirA) on the biotinylation target sequence
notes: JUNO, human, entire ectodomain, truncated at P231 of A6ND01; also called JUNO bait; human JUNO (bait); source: HEK293-6E, transient transfection, cotransfected with secreted BirA; conditioned medium dialysed in PBS (AVEXIS), or purified from spent medium on Ni-NTA (SAVEXIS); not shown: domains 3 and 4 of rat CD4, C-terminal, kept
For B1, the binding result is reported as “binds”.
